Reference: PMC2710984
Ends that are not written are not given here.

Molecular target: GST–BIR3 fusion protein (XIAP BIR3 domain)
Assay: FMAT bead-based fluorescence competition assay

B1: SVPF (compound 10) (peptide)
peptide: SVPF-NH2
In the case of B1, the IC50 is reported as 1000 nM.

B2: Smac 7-mer peptide AVPIAQK (compound 1) (peptide)
peptide: AVPIAQK-NH2
Binder B2 has an IC50 of 390 nM.

B3: Grim 4-mer peptide AIAY (compound 8) (peptide)
peptide: AIAY-NH2
With B3 the IC50 was 340 nM.

B4: Smac 5-mer peptide AVPIA (compound 3) (peptide)
peptide: AVPIA-NH2
Work on B4 yielded an IC50 of 300 nM.

B5: ATPF (compound 17) (peptide)
peptide: ATPF-NH2
B5 showed an IC50 of 200 nM.

B6: AIPF (compound 16) (peptide)
peptide: AIPF-NH2
B6 was tested, and the IC50 was 80 nM.

B7: ALPF (compound 15) (peptide)
peptide: ALPF-NH2
For B7, the IC50 was 180 nM.

B8: Smac 6-mer peptide AVPIAQ (compound 2) (peptide)
peptide: AVPIAQ-NH2
Binder B8 has an IC50 of 270 nM.
